Measurements from paper PMC3751566.
Residue numbers refer to the chain shown, from its start.

B1: Munc18c (endogenous) [mouse (endogenous in 3T3-L1 and PTP1B KO adipocytes)] / Protein-tyrosine phosphatase 1B substrate-trapping [not stated] (parent)
chain 1: MAPPVSERGLKSVVWRKIKTAVFDDCRKEGEWKIMLLDEFTTKLLSSCCKMTDLLEEGITVIENIYKNREPVRQMKALYFISPTPKSVDCFLRDFGSKSEKKYKAAYIYFTDFCPDSLFNKIKASCSKSIRRCKEINISFIPQESQVYTLDVPDAFYYCYSPDPSNASRKEVVMEAMAEQIVTVCATLDENPGVRYKSKPLDNASKLAQLVEKKLEDYYKIDEKGLIKGKTQSQLLIIDRGFDPVSTVLHELTFQAMAYDLLPIENDTYKYKTDGKEKEAVLEEDDDLWVRVRHRHIAVVLEEIPKLMKEISSTKKATEGKTSLSALTQLMKKMPHFRKQISKQVVHLNLAEDCMNKFKLNIEKLCKTEQDLALGTDAEGQRVKDSMLVLLPVLLNKNHDNCDKIRAVLLYIFGINGTTEENLDRLIHNVKIEDDSDMIRNWSHLGVPIVPPSQQAKPLRKDRSAEETFQLSRWTPFIKDIMEDAIDNRLDSKEWPYCSRCPAVWNGSGAVSARQKPRTNYLELDRKNGSRLIIFVIGGITYSEMRCAYEVSQAHKSCEVIIGSTHILTPRKLLDDIKMLNKSKDKVSFKDE
chain 2: MEMEKEFEQIDKSGSWAAIYQDIRHEASDFPCRVAKLPKNKNRNRYRDVSPFDHSRIKLHQEDNDYINASLIKMEEAQRSYILTQGPLPNTCGHFWEMVWEQKSRGVVMLNRVMEKGSLKCAQYWPQKEEKEMIFEDTNLKLTLISEDIKSYYTVRQLELENLTTQETREILHFHYTTWPAFGVPESPASFLNFLFKVRESGSLSPEHGPVVVHCSAGIGRSGTFCLADTCLLLMDKRKDPSSVDIKKVLLEMRKFRMGLIQTADQLRFSYLAVIEGAKFIMGDSSVQDQWKELSHEDLEPPPEHIPPPPRPPKRILEPHNGKCREFFPNHQWVKEETQEDKDCPIKEEKGSPLNAAPYGIESMSQDTEVRSRVVGGSLRGAQAASPAKGEPSLPEKDEDHALSYWKPFLVNMCVATVLTAGAYLCYRFLFNSNT
B2: Protein-tyrosine phosphatase 1B wild type [not stated] / Munc18c (endogenous) [mouse (endogenous in 3T3-L1 and PTP1B KO adipocytes)] (parent)
chain 1: B1 chain 2 with A181D
chain 2: B1 chain 1

Variants of: B1
Assay: co-immunoprecipitation (IP PTP1B with FG6, IB Munc18c), band quantification
Details: with Protein-tyrosine phosphatase 1B substrate-trapping mutant D181A; Munc18c knockdown 3T3-L1 cells reconstituted with Y521F, transfected with PTP1B D/A, + insulin; read off a plot

response (relative to WT) | Variant
0.93 | chain 1 MAPPVSERGLKSVVWRKIKTAVFDDCRKEGEWKIMLLDEFTTKLLSSCCKMTDLLEEGITVIENIYKNREPVRQMKALYFISPTPKSVDCFLRDFGSKSEKKYKAAYIYFTDFCPDSLFNKIKASCSKSIRRCKEINISFIPQESQVYTLDVPDAFYYCYSPDPSNASRKEVVMEAMAEQIVTVCATLDENPGVRYKSKPLDNASKLAQLVEKKLEDYYKIDEKGLIKGKTQSQLLIIDRGFDPVSTVLHELTFQAMAYDLLPIENDTYKYKTDGKEKEAVLEEDDDLWVRVRHRHIAVVLEEIPKLMKEISSTKKATEGKTSLSALTQLMKKMPHFRKQISKQVVHLNLAEDCMNKFKLNIEKLCKTEQDLALGTDAEGQRVKDSMLVLLPVLLNKNHDNCDKIRAVLLYIFGINGTTEENLDRLIHNVKIEDDSDMIRNWSHLGVPIVPPSQQAKPLRKDRSAEETFQLSRWTPFIKDIMEDAIDNRLDSKEWPYCSRCPAVWNGSGAVSARQKPRTNFLELDRKNGSRLIIFVIGGITYSEMRCAYEVSQAHKSCEVIIGSTHILTPRKLLDDIKMLNKSKDKVSFKDE [chain 1 Y521F]

Same assay, conditions: with Protein-tyrosine phosphatase 1B substrate-trapping mutant D181A; Munc18c knockdown 3T3-L1 cells reconstituted with Y521F, transfected with PTP1B D/A, - insulin; read off a plot

response (relative to WT) | Variant
0.38 | chain 1 MAPPVSERGLKSVVWRKIKTAVFDDCRKEGEWKIMLLDEFTTKLLSSCCKMTDLLEEGITVIENIYKNREPVRQMKALYFISPTPKSVDCFLRDFGSKSEKKYKAAYIYFTDFCPDSLFNKIKASCSKSIRRCKEINISFIPQESQVYTLDVPDAFYYCYSPDPSNASRKEVVMEAMAEQIVTVCATLDENPGVRYKSKPLDNASKLAQLVEKKLEDYYKIDEKGLIKGKTQSQLLIIDRGFDPVSTVLHELTFQAMAYDLLPIENDTYKYKTDGKEKEAVLEEDDDLWVRVRHRHIAVVLEEIPKLMKEISSTKKATEGKTSLSALTQLMKKMPHFRKQISKQVVHLNLAEDCMNKFKLNIEKLCKTEQDLALGTDAEGQRVKDSMLVLLPVLLNKNHDNCDKIRAVLLYIFGINGTTEENLDRLIHNVKIEDDSDMIRNWSHLGVPIVPPSQQAKPLRKDRSAEETFQLSRWTPFIKDIMEDAIDNRLDSKEWPYCSRCPAVWNGSGAVSARQKPRTNFLELDRKNGSRLIIFVIGGITYSEMRCAYEVSQAHKSCEVIIGSTHILTPRKLLDDIKMLNKSKDKVSFKDE [chain 1 Y521F]

Same assay, conditions: with Protein-tyrosine phosphatase 1B substrate-trapping mutant D181A; Munc18c knockdown 3T3-L1 cells reconstituted with Y218/219F, transfected with PTP1B D/A, + insulin; read off a plot

response (relative to WT) | Variant
0.87 | chain 1 MAPPVSERGLKSVVWRKIKTAVFDDCRKEGEWKIMLLDEFTTKLLSSCCKMTDLLEEGITVIENIYKNREPVRQMKALYFISPTPKSVDCFLRDFGSKSEKKYKAAYIYFTDFCPDSLFNKIKASCSKSIRRCKEINISFIPQESQVYTLDVPDAFYYCYSPDPSNASRKEVVMEAMAEQIVTVCATLDENPGVRYKSKPLDNASKLAQLVEKKLEDFFKIDEKGLIKGKTQSQLLIIDRGFDPVSTVLHELTFQAMAYDLLPIENDTYKYKTDGKEKEAVLEEDDDLWVRVRHRHIAVVLEEIPKLMKEISSTKKATEGKTSLSALTQLMKKMPHFRKQISKQVVHLNLAEDCMNKFKLNIEKLCKTEQDLALGTDAEGQRVKDSMLVLLPVLLNKNHDNCDKIRAVLLYIFGINGTTEENLDRLIHNVKIEDDSDMIRNWSHLGVPIVPPSQQAKPLRKDRSAEETFQLSRWTPFIKDIMEDAIDNRLDSKEWPYCSRCPAVWNGSGAVSARQKPRTNYLELDRKNGSRLIIFVIGGITYSEMRCAYEVSQAHKSCEVIIGSTHILTPRKLLDDIKMLNKSKDKVSFKDE [chain 1 Y218F Y219F]

Same assay, conditions: with Protein-tyrosine phosphatase 1B substrate-trapping mutant D181A; Munc18c knockdown 3T3-L1 cells reconstituted with Y218/219F, transfected with PTP1B D/A, - insulin; read off a plot

response (relative to WT) | Variant
0.4 | chain 1 MAPPVSERGLKSVVWRKIKTAVFDDCRKEGEWKIMLLDEFTTKLLSSCCKMTDLLEEGITVIENIYKNREPVRQMKALYFISPTPKSVDCFLRDFGSKSEKKYKAAYIYFTDFCPDSLFNKIKASCSKSIRRCKEINISFIPQESQVYTLDVPDAFYYCYSPDPSNASRKEVVMEAMAEQIVTVCATLDENPGVRYKSKPLDNASKLAQLVEKKLEDFFKIDEKGLIKGKTQSQLLIIDRGFDPVSTVLHELTFQAMAYDLLPIENDTYKYKTDGKEKEAVLEEDDDLWVRVRHRHIAVVLEEIPKLMKEISSTKKATEGKTSLSALTQLMKKMPHFRKQISKQVVHLNLAEDCMNKFKLNIEKLCKTEQDLALGTDAEGQRVKDSMLVLLPVLLNKNHDNCDKIRAVLLYIFGINGTTEENLDRLIHNVKIEDDSDMIRNWSHLGVPIVPPSQQAKPLRKDRSAEETFQLSRWTPFIKDIMEDAIDNRLDSKEWPYCSRCPAVWNGSGAVSARQKPRTNYLELDRKNGSRLIIFVIGGITYSEMRCAYEVSQAHKSCEVIIGSTHILTPRKLLDDIKMLNKSKDKVSFKDE [chain 1 Y218F Y219F]

Variants of: B2
Assay: as above
Details: with Munc18c (endogenous) [mouse (endogenous in 3T3-L1 and PTP1B KO adipocytes)]; 3T3-L1 WT adipocytes, + insulin + Vanadate; read off a plot

response (relative to WT) | Variant
0.83 | chain 1 D181A

Same assay, conditions: with Munc18c (endogenous) [mouse (endogenous in 3T3-L1 and PTP1B KO adipocytes)]; 3T3-L1 WT adipocytes, + insulin, NP40 lysis; read off a plot

response (relative to WT) | Variant
2.2 | chain 1 D181A

Same assay, conditions: with Munc18c (endogenous) [mouse (endogenous in 3T3-L1 and PTP1B KO adipocytes)]; 3T3-L1 WT adipocytes, - insulin, NP40 lysis; read off a plot

response (relative to WT) | Variant
1.4 | chain 1 D181A
